Measured values reported in the supplement of paper PMC9112550, “Optimization of the antimicrobial peptide Bac7 by deep mutational scanning” (BMC Biology, 2022).

System: Escherichia coli TOP10
Test: shrunken log2 fold change of peptide-encoding DNA abundance (4.5 h post-induction vs induction); higher = less antimicrobial activity (less host growth inhibition)
Conditions: time post-induction: 4.5 h; library: site-saturation at positions 5, 18, 19, 20
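Note: peptides expressed intracellularly from a pBAD plasmid library in pooled LB shake-flask culture, induced with 0.3% L-arabinose, DNA abundance read by NGS, three biological replicates, DESeq2 with apeglm shrinkage.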

Sequence	shrunken log2 fold change
RRIRPRPPRLPRPRPRPDTLPRP	-0.284
RRIRMRPPRLPRPRPRPFQCPRP	-0.153
RRIRWRPPRLPRPRPRPHHLPRP	-0.71
RRIRFRPPRLPRPRPRPCYGPRP	-0.0414
RRIRHRPPRLPRPRPRPFFEPRP	-0.0877
RRIRCRPPRLPRPRPRPIAKPRP	0.0637
RRIRPRPPRLPRPRPRPWDMPRP	-0.0229
RRIRFRPPRLPRPRPRPHDDPRP	-0.531
RRIRWRPPRLPRPRPRPLAYPRP	0.0203
RRIRVRPPRLPRPRPRPTSYPRP	-0.45
RRIRKRPPRLPRPRPRPPNHPRP	0.33
RRIRPRPPRLPRPRPRPHNNPRP	-0.692
RRIRMRPPRLPRPRPRPQPSPRP	1.11
RRIRERPPRLPRPRPRPDTLPRP	-0.00753
RRIRSRPPRLPRPRPRPYQAPRP	-0.0507
RRIRTRPPRLPRPRPRPAPDPRP	0.15
RRIRKRPPRLPRPRPRPANYPRP	0.0421
RRIRWRPPRLPRPRPRPIGGPRP	-0.0334
RRIRTRPPRLPRPRPRPKEHPRP	-0.174
RRIRGRPPRLPRPRPRPKALPRP	0.0797
RRIRFRPPRLPRPRPRPDGKPRP	-0.3
RRIRSRPPRLPRPRPRPKPWPRP	0.463
RRIRTRPPRLPRPRPRPRQVPRP	-0.0471
RRIRDRPPRLPRPRPRPLMRPRP	0.665
RRIRERPPRLPRPRPRPVFFPRP	0.0585

Sequence	shrunken log2 fold change
RRIRCRPPRLPRPRPRPYDNPRP	-0.498
RRIRCRPPRLPRPRPRPFKKPRP	-0.319
RRIRERPPRLPRPRPRPNWFPRP	-0.0607
RRIRSRPPRLPRPRPRPKPVPRP	0.0648
RRIRKRPPRLPRPRPRPQQQPRP	-0.0131
RRIRVRPPRLPRPRPRPTFPPRP	0.0553
RRIRDRPPRLPRPRPRPIQPPRP	0.00911
RRIRHRPPRLPRPRPRPSHQPRP	-0.178
RRIRRRPPRLPRPRPRPAWFPRP	0.22
RRIRQRPPRLPRPRPRPVRHPRP	-0.0023
RRIRHRPPRLPRPRPRPMQSPRP	-0.215
RRIRRRPPRLPRPRPRPQTVPRP	-0.0201
RRIRDRPPRLPRPRPRPDKMPRP	0.0425
RRIRGRPPRLPRPRPRPPDYPRP	0.135
RRIRERPPRLPRPRPRPVEWPRP	-0.00804
RRIRNRPPRLPRPRPRPKVLPRP	-0.105
RRIRDRPPRLPRPRPRPQNNPRP	-0.653
RRIRSRPPRLPRPRPRPTTMPRP	0.0245
RRIRIRPPRLPRPRPRPVGQPRP	-0.195
RRIRARPPRLPRPRPRPHTFPRP	-0.314
RRIRGRPPRLPRPRPRPHPQPRP	0.546
RRIRCRPPRLPRPRPRPWVQPRP	-0.391
RRIRCRPPRLPRPRPRPPGEPRP	0.609
RRIRDRPPRLPRPRPRPCHKPRP	-0.00188
RRIRVRPPRLPRPRPRPRNKPRP	-0.136

Sequence	shrunken log2 fold change
RRIRQRPPRLPRPRPRPQKWPRP	0.0876
RRIRPRPPRLPRPRPRPTDTPRP	-0.00249
RRIRNRPPRLPRPRPRPICQPRP	-0.0999
RRIRPRPPRLPRPRPRPLEGPRP	0.179
RRIRIRPPRLPRPRPRPWKKPRP	0.00748
RRIRMRPPRLPRPRPRPGAHPRP	0.473
RRIRRRPPRLPRPRPRPDVPPRP	0.0826
RRIRDRPPRLPRPRPRPSAKPRP	0.23
RRIRLRPPRLPRPRPRPTATPRP	0.817
RRIRGRPPRLPRPRPRPNLTPRP	0.374
RRIRSRPPRLPRPRPRPKYVPRP	-0.527
RRIRWRPPRLPRPRPRPELGPRP	-0.0384
RRIRPRPPRLPRPRPRPDAGPRP	0.442
RRIRFRPPRLPRPRPRPFRGPRP	-0.224
RRIRNRPPRLPRPRPRPGNDPRP	-0.0364
RRIRARPPRLPRPRPRPWLTPRP	0.0459
RRIRTRPPRLPRPRPRPPMTPRP	0.172
RRIRMRPPRLPRPRPRPRQEPRP	1.13
RRIRKRPPRLPRPRPRPKVSPRP	-0.0412
RRIRCRPPRLPRPRPRPHIYPRP	-0.954
RRIRNRPPRLPRPRPRPAAHPRP	-0.00675
RRIRVRPPRLPRPRPRPRPCPRP	0.322
RRIRQRPPRLPRPRPRPFEAPRP	-0.0497
RRIRGRPPRLPRPRPRPANQPRP	0.329
RRIRARPPRLPRPRPRPHWPPRP	0.233

Sequence	shrunken log2 fold change
RRIRVRPPRLPRPRPRPMCVPRP	0.103
RRIRTRPPRLPRPRPRPVSIPRP	-0.082
RRIRKRPPRLPRPRPRPEIFPRP	0.368
RRIRNRPPRLPRPRPRPYMEPRP	-0.0924
RRIRHRPPRLPRPRPRPQLIPRP	0.00748
RRIRTRPPRLPRPRPRPHFKPRP	-0.307
RRIRARPPRLPRPRPRPTKWPRP	0.4
RRIRYRPPRLPRPRPRPFGTPRP	-0.158
RRIRMRPPRLPRPRPRPDVVPRP	-0.0061
RRIRERPPRLPRPRPRPPQRPRP	0.315
RRIRPRPPRLPRPRPRPDDTPRP	-0.085
RRIRVRPPRLPRPRPRPFEIPRP	-0.486
RRIRTRPPRLPRPRPRPHLPPRP	0.236
RRIRFRPPRLPRPRPRPQTPPRP	0.626
RRIRWRPPRLPRPRPRPGQAPRP	1.06
RRIRDRPPRLPRPRPRPPAWPRP	0.811
RRIRWRPPRLPRPRPRPGYHPRP	-0.263
RRIRPRPPRLPRPRPRPNMSPRP	-0.485
RRIRVRPPRLPRPRPRPIWLPRP	-0.106
RRIRERPPRLPRPRPRPDCDPRP	-0.121
RRIRCRPPRLPRPRPRPLVPPRP	-0.202
RRIRGRPPRLPRPRPRPAAMPRP	1.54
RRIRLRPPRLPRPRPRPKNTPRP	-0.333
RRIRDRPPRLPRPRPRPVESPRP	-0.373
RRIRHRPPRLPRPRPRPSKQPRP	-0.166

Sequence	shrunken log2 fold change
RRIRWRPPRLPRPRPRPKFLPRP	-0.0144
RRIRRRPPRLPRPRPRPAPTPRP	0.793
RRIRKRPPRLPRPRPRPREAPRP	1.44
RRIRPRPPRLPRPRPRPWKMPRP	0.0124
RRIRCRPPRLPRPRPRPDMVPRP	-0.184
RRIRYRPPRLPRPRPRPIPSPRP	-0.0334
RRIRTRPPRLPRPRPRPRPVPRP	0.407
RRIRVRPPRLPRPRPRPKTWPRP	0.063
RRIRWRPPRLPRPRPRPASEPRP	0.329
RRIRMRPPRLPRPRPRPADSPRP	0.264
RRIRGRPPRLPRPRPRPPEQPRP	1.29
RRIRFRPPRLPRPRPRPYIQPRP	-0.841
RRIRARPPRLPRPRPRPQTAPRP	0.188
RRIRGRPPRLPRPRPRPCCHPRP	0.345
RRIRERPPRLPRPRPRPVSEPRP	0.164
RRIRLRPPRLPRPRPRPIVVPRP	-0.0319
RRIRFRPPRLPRPRPRPDVFPRP	-0.119
RRIRHRPPRLPRPRPRPAFQPRP	-0.0477
RRIRYRPPRLPRPRPRPATKPRP	0.171
RRIRHRPPRLPRPRPRPCIWPRP	-0.121
RRIRQRPPRLPRPRPRPVSDPRP	-0.0568
RRIRPRPPRLPRPRPRPVLWPRP	0.374
RRIRFRPPRLPRPRPRPDPPPRP	0.37
RRIRERPPRLPRPRPRPMYCPRP	-0.064
RRIRLRPPRLPRPRPRPWCPPRP	0.0721

Sequence	shrunken log2 fold change
RRIRGRPPRLPRPRPRPNNCPRP	0.101
RRIRLRPPRLPRPRPRPNPGPRP	-0.213
RRIRCRPPRLPRPRPRPGMFPRP	-0.462
RRIRERPPRLPRPRPRPMDIPRP	-0.235
RRIRVRPPRLPRPRPRPAHRPRP	-0.0183
RRIRIRPPRLPRPRPRPGHGPRP	-0.062
RRIRLRPPRLPRPRPRPVSGPRP	0.525
RRIRMRPPRLPRPRPRPMGAPRP	1.18
RRIRARPPRLPRPRPRPPRDPRP	1.04
RRIRQRPPRLPRPRPRPLFWPRP	-0.23
RRIRLRPPRLPRPRPRPWHKPRP	-0.0761
RRIRRRPPRLPRPRPRPCHLPRP	-0.0646
RRIRHRPPRLPRPRPRPNIMPRP	-0.596
RRIRFRPPRLPRPRPRPMDYPRP	-0.00172
RRIRGRPPRLPRPRPRPTCMPRP	0.879
RRIRQRPPRLPRPRPRPLTYPRP	-0.13
RRIRVRPPRLPRPRPRPTWGPRP	0.436
RRIRWRPPRLPRPRPRPMYIPRP	-0.144
RRIRPRPPRLPRPRPRPYDEPRP	-0.0606
RRIRMRPPRLPRPRPRPKSHPRP	-0.0378
RRIRDRPPRLPRPRPRPWLYPRP	-0.68
RRIRDRPPRLPRPRPRPMHWPRP	0.591
RRIRKRPPRLPRPRPRPHLLPRP	0.00821
RRIRYRPPRLPRPRPRPCYVPRP	-0.0553
RRIRPRPPRLPRPRPRPEYVPRP	-0.0441
